# Data: paper doi:10.1101/2024.09.13.612588 (bioRxiv, 2024)
# Molecular target: the molecule itself
# Assay: high-speed AFM
protein,measurement,value
"Toll/interleukin-1 receptor domain of MyD88 (TIR_(MyD88)), wild type (domain or fragment) PLGHMPERFDAFICYCPSDIQFVQEMIRQLEQTNYRLKLCVSDRDVLPGTCVWSIASELIEKRCRRMVVVVSDDYLQSKECDFQTKFALSLSPGAHQKRLIPIKYKAMKKEFPSILRFITVCDYTNPCTKSWFWTRLAKALSLP",stoichiometry N,58 subunits
